Data on four molecules can be found in PMC11558545 (2024).

One assay concerns the target T1, At14-3-3 λ^N233A (Arabidopsis thaliana, UniProt P48349 1-248, N233A).
T1 sequence: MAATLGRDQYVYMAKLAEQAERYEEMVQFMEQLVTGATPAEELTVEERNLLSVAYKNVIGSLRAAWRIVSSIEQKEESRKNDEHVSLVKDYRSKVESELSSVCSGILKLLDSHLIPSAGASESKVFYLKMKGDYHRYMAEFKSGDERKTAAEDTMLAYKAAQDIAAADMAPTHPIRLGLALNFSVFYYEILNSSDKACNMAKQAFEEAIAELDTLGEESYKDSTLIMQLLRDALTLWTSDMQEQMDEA
Nature of the assay: ITC. A general note: In ITC the heat of successive injections is recorded.

Assay [1] addresses T2, Arabidopsis 14-3-3 isoform kappa (At14-3-3-κ^1−248) (Arabidopsis thaliana, UniProt P48348 1-248).
T2 chain: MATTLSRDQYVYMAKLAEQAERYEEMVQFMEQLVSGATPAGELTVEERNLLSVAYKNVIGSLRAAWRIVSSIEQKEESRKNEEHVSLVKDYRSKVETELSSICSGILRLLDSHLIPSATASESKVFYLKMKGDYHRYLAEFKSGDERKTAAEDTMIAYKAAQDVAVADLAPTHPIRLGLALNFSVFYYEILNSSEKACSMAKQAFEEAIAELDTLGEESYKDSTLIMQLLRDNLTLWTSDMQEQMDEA
Nature of the assay: ITC.

Assay [2] concerns the target T3, Arabidopsis 14-3-3 omega, full length (At14-3-3-ω^1−259) (Arabidopsis thaliana, UniProt Q01525 1-259).
T3 chain: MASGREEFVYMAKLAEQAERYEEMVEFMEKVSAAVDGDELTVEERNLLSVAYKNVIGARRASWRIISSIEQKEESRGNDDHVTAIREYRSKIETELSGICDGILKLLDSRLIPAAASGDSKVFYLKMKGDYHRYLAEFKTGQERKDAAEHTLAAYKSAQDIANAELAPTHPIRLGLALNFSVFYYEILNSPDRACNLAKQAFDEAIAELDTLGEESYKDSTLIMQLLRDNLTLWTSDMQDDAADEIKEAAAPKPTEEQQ
Nature of the assay: ITC.

In assay [3] the target is T2, Arabidopsis 14-3-3 isoform kappa …. Nature of the assay: ITC.
The target of assay [4] is T4, Arabidopsis 14-3-3 lambda (At14-3-3-λ^1−248) (Arabidopsis thaliana, UniProt P48349 1-248).
T4 chain: T1 sequence with A233N
Nature of the assay: ITC.

Assay [5] has as its target T5, biotinylated 14-3-3 ω dimer (Arabidopsis thaliana, UniProt Q01525 1-259, biotin (EZ-Link NHS-Biotin, equimolar amounts of protein and biotin; sites not stated)).
T5 chain: T3 chain

Residue numbers refer to the chain shown, from its start. Several values for one entry are separate records, joined by “and”; a condition that tells them apart may be missing. Equal entries are not always repeated. Where two headings read alike, the source gives them in different places. Square brackets hold non-standard residues; d marks the D form. Ends that are not written are not given here. pT = C[C@@H](OP(=O)(O)O)[C@H](N)C(=O)O; pS = N[C@@H](COP(=O)(O)O)C(=O)O

By Kd is commonly meant the constant that tells how readily two partners part at equilibrium. A higher Kd goes with lower affinity. As to RKL[pT]FA [pBRI1^869−874 peptide], the Kd with At14-3-3 λ^N233A is 40 µM; in assay [1], 16.7 µM and 17 µM.

As a reminder, the koff is a measure of how fast the partners let go of each other. Consider RISN[pS]AP [pBZR1^169−175 peptide], for which the Kd in assay [2] was 0.88 µM; in assay [3], 0.57 µM; in assay [4], 0.81 µM; in the assay with At14-3-3 λ^N233A, 5 µM; in assay [1], 0.38 µM and 0.4 µM. In assay [5], the off-rate constant (koff) was 0.87 s⁻¹.

RISN[pS]CPV[pT]PPVSSPT [pBZR1^169−184 peptide]: the Kd in assay [1] is 3.1 µM and 3 µM.

With RGELF[pS]AP [pBKI1^265−272 peptide], the Kd in assay [2] worked out at 6.4 µM; in assay [3], 14.4 µM; in assay [4], 5.4 µM; with At14-3-3 λ^N233A, 3.7 µM.
